Results reported in publication PMC10858199 (2024).

Target: Amyloid-beta aggregates (Homo sapiens, UniProt P05067)
Experiment: SPR

Kd: ~1000 nM
B1: CR4 I-domain (protein)
chain: RNFATMMNFVRAVISQFQRPSTQFSLMQFSNKFQTHFTFEEFRRSSNPLSLLASVHQLQGFTYTATAIQNVVHRLFHASYGARRDAAKILIVITDGKKEGDSLDYKDVIPMADAAGIIRYAIGVGLAFQNRNSWKELNDIASKPSQEHIFKVEDFDALKDIQNQLKEKIFAIEGT
